The labels stand for the following.
B1: type 1 protein phosphatase catalytic subunit PP1β (enzyme, UniProt P62140 1-327, looked up)
chain: MADGELNVDSLITRLLEVRGCRPGKIVQMTEAEVRGLCIKSREIFLSQPILLELEAPLKICGDIHGQYTDLLRLFEYGGFPPEANYLFLGDYVDRGKQSLETICLLLAYKIKYPENFFLLRGNHECASINRIYGFYDECKRRFNIKLWKTFTDCFNCLPIAAIVDEKIFCCHGGLSPDLQSMEQIRRIMRPTDVPDTGLLCDLLWSDPDKDVQGWGENDRGVSFTFGADVVSKFLNRHDLDLICRAHQVVEDGYEFFAKRQLVTLFSAPNYCGEFDNAGGMMSVDETLMCSFQILKPSEKKAKYQYGGLNSGRPVTPPRTANPPKKR
notes: Endogenous protein or transfected Flag-tagged PP1β (ImaGenes), as said under assay; also called PP1cβ; Flag-tagged-PP1β
B2: myosin phosphatase targeting subunit 1 (MYPT1) (other)
chain: MKMADAKQKRNEQLKRWIGSETDLEPPVVKRQKTKVKFDDGAVFLAACSSGDTDEVLKLLHRGADINYANVDGLTALHQACIDDNVDMVKFLVENGANINQPDNEGWIPLHAAASCGYLDIAEFLIGQGAHVGAVNSEGDTPLDIAEEEAMEELLQNEVNRQGVDIEAARKEEERIMLRDARQWLNSGHINDVRHAKSGGTALHVAAAKGYTEVLKLLIQAGYDVNIKDYDGWTPLHAAAHWGKEEACRILVDNLCDMEMVNKVGQTAFDVADEDILGYLEELQKKQNLLHSEKRDKKSPLIESTANMDNNQSQKTFKNKETLIIEPEKNASRIESLEQEKVDEEEEGKKDESSCSSEEDEEDDSESEAETDKTKPLASVTNANTSSTQAAPVAVTTPTVSSGQATPTSPIKKFPTTATKISPKEEERKDESPATWRLGLRKTGSYGALAEITASKEGQKEKDTAGVTRSASSPRLSSSLDNKEKEKDSKGTRLAYVAPTIPRRLASTSDIEEKENRDSSSLRTSSSYTRRKWEDDLKKNSSVNEGSTYHKSCSFGRRQDDLISSSVPSTTSTPTVTSAAGLQKSLLSSTSTTTKITTGSSSAGTQSSTSNRLWAEDSTEKEKDSVPTAVTIPVAPTVVNAAASTTTLTTTTAGTVSSTTEVRERRRSYLTPVRDEESESQRKARSRQARQSRRSTQGVTLTDLQEAEKTIGRSRSTRTREQENEEKEKEEKEKQDKEKQEEKKESETSREDEYKQKYSRTYDETYQRYRPVSTSSSTTPSSSLSTMSSSLYASSQLNRPNSLVGITSAYSRGITKENEREGEKREEEKEGEDKSQPKSIRERRRPREKRRSTGVSFWTQDSDENEQEQQSDTEEGSNKKETQTDSISRYETSSTSAGDRYDSLLGRSGSYSYLEERKPYSSRLEKDDSTDFKKLYEQILAENEKLKAQLHDTNMELTDLKLQLEKATQRQERFADRSLLEMEKRERRALERRISEMEEELKMLPDLKADNQRLKDENGALIRVISKLSK
notes: also called HA-MYPT1; HA-tagged-MYPT1
B3: HA-Optn Δ131-297 (other)
chain: MSHQPLSCLTEKEDSPSESTGNGPPHLAHPNLDTFTPEELLQQMKELLTENHQLKEAMKLNNQAMKGRFEELSAWTEKQKEERQFFEIQSKEAKERLMALSHENEKLKEELGKLKGKSERSSEDPTDDSREVEALNLQVTSLFKELQEAHTKLSKAELMKKRLQEKCQALERKNSAIPSELNEKQELVYTNKKLELQVESMLSEIKMEQAKTEDEKSKLTVLQMTHNKLLQEHNNALKTIEELTRKESEKVDRAVLKELSEKLELAEKALASKQLQMDEMKQTIAKQEEDLETMTILRAQMEVYCSDFHAERAAREKIHEEKEQLALQLAVLLKENDAFEDGGRQSLMEMQSRHGARTSDSDQQAYLVQRGAEDRDWRQQRNIPIHSCPKCGEVLPDIDTLQIHVMDCII

Assay [1] deals with B2. The assay can be described thus: anti-Flag immunoprecipitation of Flag-PP1β, transfected HEK-293T cells (FIG. 4B).
Assay [2] concerns the target T1, Optineurin (Optn), wild type (human, UniProt Q96CV9 1-577).
T1 construct: Full-length wild-type human Optn; also called Optn WT; HA-Optn
Kind of assay: TAP and co-immunoprecipitations, title of FIG. 4.

The target in assay [3] is B2. The assay can be described thus: anti-MYPT1 immunoprecipitation, anti-HA Western blot, transfected HeLa cells (FIG. 4D).

Take B1: the binding result in assay [1] is given as “binds”.
Take B2: the binding result in assay [2] is reported as “binds”.
Take B3: the binding result in assay [3] is “no binding”.

For the origin of these results see US20140336126A1 (INSTITUT PASTEUR, published 2014).
